{"source": "paper PMC10977726", "about": "(PLOS ONE, 2024)", "binders": {"B1": {"name": "His(6)-SUMO-TEV-Ig-CON-5 fusion protein (designed binder)", "chain": "ENLYFQGECKGKGAKCSSISIHDAHCCTGSCRSGKC"}}, "target": "human IgG Fc (Biotin-SP-ChromPure Human IgG, Fc fragment) (human, biotin (Biotin-SP))", "assay": "SPR", "conditions": "both partners purified"}
{"binder": "B1", "values": [{"measurement": "Kd", "value": 22.2, "unit": "nM"}]}
